From patent US7465582B1, “Nurr-1 induction of a dopaminergic neuronal fate in a neural stem cell or neural progenitor cell in vitro” (Neuro Therapeutics AB, priority 2000, dated 2008)

What was measured:
[1] = system: Nurr1-c42-derived dopaminergic neurons; assay: Response of TH positive c42 cells in co-culture to neurotrophic factors; type: cell-based, mouse; conditions: 9 DIV, after SR11237 and bFGF induction; for neuritogenesis and/or hypertrophy: BDNF 30 ng/ml, CNTF 10 ng/ml, GDNF 10 ng/ml
Description: (§1) C17.2 neural stem cells (Snyder, E. Y. et al. Cell 68, 33-51 (1992)) were maintained and passaged as previously described (Snyder, E. Y. et al. Cell 68, 33-51 (1992)). Ventral mesencephala from E16 rat embryos were dissected, mechanically dissociated and plated at a final density of 1×10^5 cells/cm^2 on poly-D-lysine coated culture wells in a defined, serum-free medium (N^2, consisting of a 1:1 mixture of F12 and DMEM containing insulin (10 ng/ml), transferrin (100 μg/ml), putrescine (100 μM), progesterone (20 nM), selenium (30 nM) glucose (6 mg/ml), and bovine serum albumin (1 mg/ml)). After 24 hours in vitro, co-cultures were initiated by directly plating 2.5−5×10^4 C17.2-derived cells into the primary cultures; all ages of cultures given use this point as 0 DIV. […] Purified Type 1 astrocytes were obtained from mixed glial cultures derived from various regions of P1 rats according to a standard protocol (McCarthy, K. D. et al. J. Cell Biol. 85, 890-902 (1980)). After replating into 6- or 12-well plates, astrocytes were grown to confluency in serum-containing media and changed to N2 medium. After 3-5 DIV, co-cultures were initiated in fresh N2 as described above. All factors were added once, at the initiation of co-culture (concentrations are noted in the Results and Discussion), with the exception of 5-bromodeoxyuridine (BrdU), which was added 4-6 hours prior to fixation. Cultures were maintained in a humidified 5% CO2, 95% air incubator at 37 C and fixed after given time periods with 4% paraformaldehyde for 45 minutes for immunocytochemical analysis.
Fixed cultures were incubated with one of the following antibodies, diluted appropriately in phosphate-buffered saline (PBS) containing 1% bovine serum albumin and 0.3% Triton-X 100: mouse anti-BrdU, 1:50 (DAKO, Denmark), mouse anti-β-tubulin, Type III (TuJ1), 1:250 (Sigma), mouse anti-TH, 1:1000 (Incstar, USA), rabbit anti-β-galactosidase, 1:250 (Cappel, USA) rabbit anti-GFAP, 1:500 (DAKO, Denmark), rabbit anti-AHD-2, 1:4000. Incubations were either carried out at 4° C. overnight, or at room temperature for 1 hour. Both processes yielded similar results. After washing, cultures were incubated for 1-3 hr with appropriate secondary antibodies (biotinylated horse-anti-mouse IgG or goat-anti-rabbit IgG, Vector, USA), 1:100, in the same dilution buffer. […] Quantitative immunocytochemical data represent means and standard errors from 100-500 cells counted in each of 3-6 separate wells from 2-4 experiments. For quantitation of TH expression in co-cultures of primary and C-17.2-derived cells, TH was visualized with the brightfield AEC substrate, while β-gal was assessed using FITC, thus all data expressed as “% TH+” represents the number of TH+/β-gal+divided by total β-gal positive cells. […]

[2] = system: Nurr1 over-expressing C17.2 clones; assay: Treatment of Nurr1 clones with trophic factors, mitogens, cytokines and other agents; TH immunoreactivity; type: cell-based, mouse; conditions: Nurr1 clones without co-culture; factors alone or combined
Excerpt: C17.2 cells were cotransfected with a CMX-Nurr1 expression vector (Perlmann, T. et al. Genes Dev. 9, 769-782 (1995)) and PGK-puromycin resistance plasmids (Nurr1 clones) or a PGK-puromycin alone (mock clones). For reporter assays, C17.2 parental cells were transfected with the Nurr1 expression vector, the reporter plasmid (NGFIB-binding response element (NBRE) triplet upstream of TK minimal promoter fused to firefly luciferase) and a pRSV-alkaline phosphatase plasmid at a 2:1:2 ratio.
as §1, with “Cultures were maintained in a humidified 5% CO2, 95% air incubator at 37 C and fixed after given time periods with 4% paraformaldehyde for 45 minutes for immunocytochemical analysis.” left out
Fixed cultures were incubated with one of the following antibodies, diluted appropriately in phosphate-buffered saline (PBS) containing 1% bovine serum albumin and 0.3% Triton-X 100: mouse anti-BrdU, 1:50 (DAKO, Denmark), mouse anti-β-tubulin, Type III (TuJ1), 1:250 (Sigma), mouse anti-TH, 1:1000 (Incstar, USA), rabbit anti-β-galactosidase, 1:250 (Cappel, USA) rabbit anti-GFAP, 1:500 (DAKO, Denmark), rabbit anti-AHD-2, 1:4000. […] Quantitative immunocytochemical data represent means and standard errors from 100-500 cells counted in each of 3-6 separate wells from 2-4 experiments. For quantitation of TH expression in co-cultures of primary and C-17.2-derived cells, TH was visualized with the brightfield AEC substrate, while β-gal was assessed using FITC, thus all data expressed as “% TH+” represents the number of TH+/β-gal+divided by total β-gal positive cells.

Row | Molecule | neuritogenesis and/or hypertrophy [1] | induction of TH expression [2] | number of TH+ cells in the culture ([1]; compared to N2 control, NT-3 30 ng/ml)
1 | BDNF: Brain Derived Neurotrophic Factor (protein, UniProt P23560 19-247, looked up) Neurotrophic factor BDNF …: APMKEANIRGQGGLAYPGVRTHGTLESVNGPKAGSRGLTSLADTFEHVIEELLDEDQKVRPNEENNKDADLYTSRVMLSSQVPLEPPLLFLLEEYKNYLDAANMSMRVRRHSDPARRGELSVCDSISEWVTAADKKTAVDMSGGTVTVLEKVPVSKGQLKQYFYETKCNPMGYTKEGCRGIDKRHWNSQCRTTQSYVRALTMDSKKRIGWRFIRIDTSCVCTLTIKRGR | induced neuritogenesis and/or hypertrophy | None of these factors induced TH expression in any of the clones | –
2 | GDNF: Glial cell line-Derived Neurotrophic Factor (protein, UniProt P39905 78-211, looked up) Glial cell line-derived …: SPDKQMAVLPRRERNRQAAAANPENSRGKGRRGQRGKNRGCVLTAIHLNVTDLGLGYETKEELIFRYCSGSCDAAETTYDKILKNLSRNRRLVSDKVGQACCRPIAFDDDLSFLDDNLVYHILRKHSAKRCGCI | induced neuritogenesis and/or hypertrophy | None of these factors induced TH expression in any of the clones | –
3 | NT-3: neurotrophin-3 (protein, UniProt P20783 139-257, looked up) Neurotrophin-3: YAEHKSHRGEYSVCDSESLWVTDKSSAIDIRGHQVTVLGEIKTGNSPVKQYFYETRCKEARPVKNGCRGIDDKHWNSQCKTSQTYVRALTSENNKLVGWRWIRIDTSCVCALSRKIGRT | – | None of these factors induced TH expression in any of the clones | dramatically increased the number of TH+ cells
4 | CNTF: Ciliary Neurotrophic Factor (protein, UniProt P26441 1-200, looked up) Ciliary neurotrophic factor: MAFTEHSPLTPHRRDLCSRSIWLARKIRSDLTALTESYVKHQGLNKNINLDSADGMPVASTDQWSELTEAERLQENLQAYRTFHVLLARLLEDQQVHFTPTEGDFHQAIHTLLLQVAAFAYQIEELMILLEYKIPRNEADGMPINVGDGGLFEKKLWGLKVLQELSQWTVRSIHDLRFISSHQTGIPARGSHYIANNKKM | induced neuritogenesis and/or hypertrophy | None of these factors induced TH expression in any of the clones | –
